Measured values published in publication PMC8105722 (The Journal of Experimental Medicine, 2021).

Molecular target: the molecule itself
Experiment: crystal structure

B1: Rv0812 (Mycobacterium tuberculosis bifunctional aminodeoxychorismate lyase / D-amino acid transaminase) (enzyme)
chain: MVVTLDGEILQPGMPLLHADDLAAVRGDGVFETLLVRDGRACLVEAHLQRLTQSARLMDLPEPDLPRWRRAVEVATQRWVASTADEGALRLIYSRGREGGSAPTAYVMVSPVPARVIGARRDGVSAITLDRGLPADGGDAMPWLIASAKTLSYAVNMAVLRHAARQGAGDVIFVSTDGYVLEGPRSTVVIATDGDQGGGNPCLLTPPPWYPILRGTTQQALFEVARAKGYDCDYRALRVADLFDSQGIWLVSSMTLAARVHTLDGRRLPRTPIAEVFAELVDAAIVSDR
notes: also called Mtb Rv0812; WT-Rv0812
stoichiometry N: 2
